Article PMC12392869 (2025)

Target: biotinylated NeoNectin candidate 1 (NN-C1) (biotin (N-terminal biotin; enzymatic biotinylation of the Avi-tag))
Test: BLI

B1: integrin αvβ8 ectodomain (complex)
chain 1: FNLDVDSPAEYSGPEGSYFGFAVDFFVPSASSRMFLLVGAPKANTTQPGIVEGGQVLKCDWSSTRRCQPIEFDATGNRDYAKDDPLEFKSHQWFGASVRSKQDKILACAPLYHWRTEMKQEREPVGTCFLQDGTKTVEYAPCRSQDIDADGQGFCQGGFSIDFTKADRVLLGGPGSFYWQGQLISDQVAEIVSKYDPNVYSIKYNNQLATRTAQAIFDDSYLGYSVAVGDFNGDGIDDFVSGVPRAARTLGMVYIYDGKNMSSLYNFTGEQMAAYFGFSVAATDINGDDYADVFIGAPLFMDRGSDGKLQEVGQVSVSLQRASGDFQTTKLNGFEVFARFGSAIAPLGDLDQDGFNDIAIAAPYGGEDKKGIVYIFNGRSTGLNAVPSQILEGQWAARSMPPSFGYSMKGATDIDKNGYPDLIVGAFGVDRAILYRARPVITVNAGLEVYPSILNQDNKTCSLPGTALKVSCFNVRFCLKADGKGVLPRKLNFQVELLLDKLKQKGAIRRALFLYSRSPSHSKNMTISRGGLMQCEELIAYLRDESEFRDKLTPITIFMEYRLDYRTAADTTGLQPILNQFTPANISRQAHILLDCGEDNVCKPKLEVSVDSDQKKIYIGDDNPLTLIVKAQNQGEGAYEAELIVSIPLQADFIGVVRNNEALARLSCAFKTENQTRQVVCDLGNPMKAGTQLLAGLRFSVHQQSEMDTSVKFDLQIQSSNLFDKVSPVVSHKVDLAVLAAVEIRGVSSPDHVFLPIPNWEHKENPETEEDVGPVVQHIYELRNNGPSSFSKAMLHLQWPYKYNNNTLLYILHYDIDGPMNCTSDMEINPLRIKISSLQTTEKNDTVAGQGERDHLITKRDLALSEGDIHTLGCGVAQCLKIVCQVGRLDRGKSAILYVKSLLWTETFMNKENQNHSYSLKSSASFNVIEFPYKNLPIEDITNSTLVTTNVTWGIQPAPMPV
chain 2: EDNRCASSNAASCARCLALGPECGWCVQEDFISGGSRSERCDIVSNLISKGCSVDSIEYPSVHVIIPTENEINTQVTPGEVSIQLRPGAEANFMLKVHPLKKYPVDLYYLVDVSASMHNNIEKLNSVGNDLSRKMAFFSRDFRLGFGSYVDKTVSPYISIHPERIHNQCSDYNLDCMPPHGYIHVLSLTENITEFEKAVHRQKISGNIDTPEGGFDAMLQAAVCESHIGWRKEAKRLLLVMTDQTSHLALDSKLAGIVVPNDGNCHLKNNVYVKSTTMEHPSLGQLSEKLIDNNINVIFAVQGKQFHWYKDLLPLLPGTIAGEIESKAANLNNLVVEAYQKLISEVKVQVENQVQGIYFNITAICPDGSRKPGMEGCRNVTSNDEVLFNVTVTMKKCDVTGGKNYAIIKPIGFNETAKIHIHRNCSCQCEDNRGPKGKCVDETFLDSKCFQCDENKCHFDEDQFSSESCKSHKDQPVCSGRGVCVCGKCSCHKIKLGKVYGKYCEKDDFSCPYHHGNLCAGHGECEAGRCQCFSGWEGDRCQCPSAAAQHCVNSKGQVCSGRGTCVCGRCECTDPRSIGRFCEHCPTCYTACKENWNCMQCLHPHNLSQAILDQCKTSCALMEQQHYVDQTSECFSSPSYLR
Kd: 1000 nM
